Measurements as given in paper PMC7360973, “Feedback regulation of heat shock factor 1 (Hsf1) activity by Hsp70‐mediated trimer unzipping and dissociation from DNA” (The EMBO Journal, 2020).
Substitutions are numbered along the chain they refer to. Names may count otherwise. Values belong to the binder of their own block, whether it stands above or below them. Ends that are not written are not given here.

Legend:
[1] = target: T1, Human Hsc70 (HSPA8) (human, UniProt P11142 1-646); experiment: fluorescence polarisation; fluorescein-labelled peptide at 1 μM titrated with Hsc70 (0–60 μM), 2 h at 25°C, HKM150 buffer (25 mM HEPES/KOH pH 7.6, 150 mM KCl, 5 mM MgCl2); Hsc70 concentrated in the presence of 1 mM ATP; quadratic fit; details: both partners purified
T1 construct: Hsc70 (HSPA8), constitutive Hsp70, human, wild type; In the functional rows from MEF and HeLa cells the Hsc70/Hsp70 is the cells' own; this molecule stands for it there; source: E. coli BL21 (DE3) Rosetta, purified (Ni-IDA, Ulp1 cleavage, reverse Ni-IDA)
T1 sequence (P11142 whole entry): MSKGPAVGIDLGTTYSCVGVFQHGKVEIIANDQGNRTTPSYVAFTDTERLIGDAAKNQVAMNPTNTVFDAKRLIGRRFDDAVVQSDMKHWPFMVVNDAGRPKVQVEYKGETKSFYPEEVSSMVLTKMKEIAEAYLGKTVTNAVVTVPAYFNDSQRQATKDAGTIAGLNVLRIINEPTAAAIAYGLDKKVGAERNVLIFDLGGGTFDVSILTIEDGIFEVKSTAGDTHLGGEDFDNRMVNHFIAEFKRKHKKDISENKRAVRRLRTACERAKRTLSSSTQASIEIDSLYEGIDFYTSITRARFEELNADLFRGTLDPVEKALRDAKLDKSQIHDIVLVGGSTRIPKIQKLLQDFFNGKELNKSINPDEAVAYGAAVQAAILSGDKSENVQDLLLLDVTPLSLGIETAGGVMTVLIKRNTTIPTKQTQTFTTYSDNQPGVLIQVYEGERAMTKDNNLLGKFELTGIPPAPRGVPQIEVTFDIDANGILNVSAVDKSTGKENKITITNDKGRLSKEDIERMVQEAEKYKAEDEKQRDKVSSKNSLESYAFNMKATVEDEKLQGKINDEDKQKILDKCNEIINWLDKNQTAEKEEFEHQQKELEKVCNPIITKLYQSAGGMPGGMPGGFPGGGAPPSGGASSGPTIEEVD

[2] = target: the molecule itself; experiment: native gel or EMSA; blue-native PAGE (8% gel, on ice) of purified Hsf1 wild type or variants, also after 10 min at 4–42°C (5 μM protein); Coomassie stain or immunoblot with Hsf1 antiserum
[3] = target: the molecule itself; experiment: SEC + native gel or EMSA; trimer-to-monomer ratio of freshly purified Hsf1 in the absence of heat shock, by gel filtration (Superdex 200) and BN-PAGE
[4] = target: T1, Human Hsc70 (HSPA8); experiment: HDX-MS; 6 μM Hsf1 (monomer or trimer) pre-incubated 30 min at 25°C with 12 μM Hsc70 or 9 μM DnaJB1 in 25 mM HEPES/NaOH pH 7.5, 150 mM NaCl, 10% glycerol, 2 mM DTT; diluted 10-fold in D2O buffer, 30 s at 25°C; online pepsin digestion; details: both partners purified
[5] = target: the molecule itself; experiment: native gel or EMSA; blue-native PAGE of lysates (15 μg total protein) of transfected HSF1−/− MEFs, immunoblot with Hsf1 antiserum

Kd [1]: 5 to 30 µM
B1: Hsf1 peptide S461‐Q471‐C (peptide)
peptide: SGKQLVHYTAQC(fluorescein‑5‑maleimide)
notes: Hsf1, human, residues 461-471 (in the TAD); C-terminal cysteine for labelling, not part of the Hsf1 stretch; also called residues 461–471

binding result [1]: binds
B2: Hsf1 peptide G204‐N214‐C (peptide)
peptide: GVKRKIPLMLNC(fluorescein‑5‑maleimide)
notes: Hsf1, human, residues 204-214; C-terminal cysteine for labelling, not part of the Hsf1 stretch

B3: Hsf1∆(202–213) (natural protein, human, UniProt Q00613 1-529, looked up)
chain: MDLPVGPGAAGPSNVPAFLTKLWTLVSDPDTDALICWSPSGNSFHVFDQGQFAKEVLPKYFKHNNMASFVRQLNMYGFRKVVHIEQGGLVKPERDDTEFQHPCFLRGQEQLLENIKRKVTSVSTLKSEDIKIRQDSVTKLLTDVQLMKGKQECMDSKLLAMKHENEALWREVASLRQKHAQQQKVVNKLIQFLISLVQSNRNDSGSAHSMPKYSRQFSLEHVHGSGPYSAPSPAYSSSSLYAPDAVASSGPIISDITELAPASPMASPGGSIDERPLSSSPLVRVKEEPPSPPQSPRVEEASPGRPSSVDTLLSPTALIDSILRESEPAPASVTALTDARGHTDTEGRPPSPPPTSTPEKCLSVACLDKNELSDHLDAMDSNLDNLQTMLSSHGFSVDTSALLDLFSPSVTVPDMSLPDLDSSLASIQELLSPQEPPRPPEAENSSPDSGKQLVHYTAQPLFLLDPGSVDTGSNDLPVLFELGEGSYFSEGDGFAEDPTISLLTGSEPPKAKDPTVS
notes: source: E. coli BL21 (DE3) Rosetta, purified (Ni-IDA, Ulp1 cleavage, Superdex 200); not shown: His6-SUMO, N-terminal, cleaved
binding result [2]: binds

binding result [1]: binds
B4: Hsf1 peptide N200‐K208‐C (peptide)
peptide: NRILGVKRKC(fluorescein‑5‑maleimide)
notes: Hsf1, human, residues 200-208; C-terminal cysteine for labelling, not part of the Hsf1 stretch

binding result [1]: binds
B5: Hsf1 peptide Y468‐S480‐C (peptide)
peptide: YTAQPLFLLDPGSC(fluorescein‑5‑maleimide)
notes: Hsf1, human, residues 468-480 (in the TAD); C-terminal cysteine for labelling, not part of the Hsf1 stretch

B6: Hsf1‐I190S,I194S (natural protein, human, UniProt Q00613 1-529, looked up)
chain: MDLPVGPGAAGPSNVPAFLTKLWTLVSDPDTDALICWSPSGNSFHVFDQGQFAKEVLPKYFKHNNMASFVRQLNMYGFRKVVHIEQGGLVKPERDDTEFQHPCFLRGQEQLLENIKRKVTSVSTLKSEDIKIRQDSVTKLLTDVQLMKGKQECMDSKLLAMKHENEALWREVASLRQKHAQQQKVVNKLSQFLSSLVQSNRILGVKRKIPLMLNDSGSAHSMPKYSRQFSLEHVHGSGPYSAPSPAYSSSSLYAPDAVASSGPIISDITELAPASPMASPGGSIDERPLSSSPLVRVKEEPPSPPQSPRVEEASPGRPSSVDTLLSPTALIDSILRESEPAPASVTALTDARGHTDTEGRPPSPPPTSTPEKCLSVACLDKNELSDHLDAMDSNLDNLQTMLSSHGFSVDTSALLDLFSPSVTVPDMSLPDLDSSLASIQELLSPQEPPRPPEAENSSPDSGKQLVHYTAQPLFLLDPGSVDTGSNDLPVLFELGEGSYFSEGDGFAEDPTISLLTGSEPPKAKDPTVS
notes: Hsf1, human, with I190S and I194S in HR-B; source: purified (gel filtration)
stoichiometry N [3]: 3

binding result [4]: binds
B7: Human heat shock transcription factor 1 (Hsf1), wild type (natural protein, UniProt Q00613 1-529, looked up)
chain: B6 chain with S190I, S194I
notes: heat shock transcription factor 1 (Hsf1), human, wild type; Purified both as a monomer and as a trimer; One molecule is used for both states; the assay's format tells which was used; also called Hsf1wt; wt; source: E. coli BL21 (DE3) Rosetta, purified (Ni-IDA, Ulp1 cleavage, Superdex 200); monomeric and trimeric fractions collected separately; not shown: His6-SUMO, N-terminal, cleaved

B8: Hsf1‐I202S,L203S,V205S expressed from pIRES‐HSF1‐I202S,L203S,V205S_hrGFP in cells (natural protein, human, UniProt Q00613 1-529, looked up)
chain: B6 chain with S190I, S194I, I202S, L203S, V205S
notes: Hsf1, human, with I202S, L203S, V205S; source: HSF1−/− MEF or HeLa, transiently transfected, in lysate or in cells
stoichiometry N [5]: 3
